In patent US20220409696A1, “Heparin-Associated Polypeptides and Uses Thereof” (Juvena Therapeutics, Inc., priority 2021, published 2022):

Tested on: DM1 human myoblast
Experiment: Gene expression fold change in DM1 human myoblast
Type: cell-based
Conditions: 48 h; BMP7 50 ng/mL, Butyrate 100 nM, IGF2 200 ng/mL
Description: Myoblasts were cultured 48 h in the presence of factors (BMP7 50 ng/mL, Butyrate 100 nM, IGF2 200 ng/mL).
Myoblasts were cultured 96 h in the presence of factors (IGF2 200 ng/mL). […] Myoblasts were cultured 48 h in the presence of factors (IGF2 200 ng/mL).
RNA was isolated from each well (RNeasy Mini Kit, Qiagen) and cDNA was obtained by reverse-transcription (High Capacity Reverse Transcription Kit, Thermo Fisher Scientific). Real-time quantitative PCR was performed using QuantStudio3 (Thermo Fisher).
IGF2 was tested individually for its ability to promote proliferation and/or fusion of human muscle progenitor cells from an individual with myotonic dystrophy type 1 (hMD)—a muscular dystrophy caused by mutations in the DMPK1 gene. The effect of IGF2 on myogenic activity was assayed in biological triplicate across a range of concentrations centered around expected physiological levels by adding each factor to hMD myoblasts for 72 hours with daily media changes (DMEM+2% horse serum) and a second pulse of factors at the first media change. After 72 or 96 hours, cells were pulsed for 2-5 hours with EdU (30 uM), ethanol fixed, stained with Hoescht 3342, immunostained for proliferation—as measured by the percent of cells staining positive for EdU (% EdU)-, and immunostained for differentiation—as measured by the increase in cellular area staining positive for embryonic myosin heavy chain (% eMyHC) relative to the negative controls, which received media and vehicle only. Wells were imaged on a Keyence BZ-100 at 4×, the images quantified in Cell Profiler, and the statistics were computed in R. Additionally, RNA was extracted from myoblast and select transcript abundances quantified by qPCR.

B1: BMP7: factor BMP7 added at 50 ng/mL to DM1 human myoblasts (protein, UniProt P18075 293-431, looked up)
Bone morphogenetic protein 7: STGSKQRSQNRSKTPKNQEALRMANVAENSSSDQRQACKKHELYVSFRDLGWQDWIIAPEGYAAYYCEGECAFPLNSYMNATNHAIVQTLVHFINPETVPKPCCAPTQLNAISVLYFDDSSNVILKKYRNMVVRACGCH
MYF5 myogenic gene expression fold change compared to FM (vehicle): 0.709
MYODI myogenic gene expression fold change compared to FM (vehicle): 0.709
MYOG myogenic gene expression fold change compared to FM (vehicle): 0.361
